Target: mouse IgG1 (subtype 1 IgG antibody) (Mus musculus) (UniProt P01868)
Test: SPR
Details: RNA with 5'-dA5 (1-5)

Sequence: AAAAACGCUGAAGAGAAGACGGAAGGAGACGAAGCGT [MIG-m034]
- Kd (LNA at C6 G7 C35 G36, 3'-dT37, BIACORE 3000, 1:1 Langmuir): < 0.001 nM
- Kd (LNA at C6 G7 C35 G36, 3'-dT37, second measurement (Example 3), differs from Table 2): 0.634 nM

Sequence: AAAAACGCUGAAGAGAAGACGGAAGGAGACGAAGCGT [MIG-m042]
- Kd (LNA at C6 G7 C35 G36, 2'-OMe U9, 3'-dT37, BIACORE 3000, 1:1 Langmuir): < 0.001 nM

Sequence: AAAAAGCGCUGAAGAGAAGACGGAAGGAGACGAAGCGC [MIG-m036]
- Kd (DNA at G6 C7 G37 C38, BIACORE 3000, 1:1 Langmuir): 5.48 nM

Sequence: AAAAAGCGCUGAAGAGAAGACGGAAGGAGACGAAGCGC [MIG-m037]
- Kd (DNA at 6-9 and 35-38, BIACORE 3000, 1:1 Langmuir): 1.7 nM

Sequence: AAAAAGCGCUGAAGAGAAGACGGAAGGAGACGAAGCGC [MIG-m040]
- Kd (2'-OMe U10, BIACORE 3000, 1:1 Langmuir): 0.411 nM

Sequence: AAAAAGCGCUGAAGAGAAGACGGAAGGAGACGAAGCGC [MIG-m041]
- Kd (DNA at 6-9 and 35-38, 2'-OMe U10, BIACORE 3000, 1:1 Langmuir): < 0.001 nM

Sequence: AAAAAGCUGAAGAGAAGACGGAAGGAGACGAAGCT [MIG-m035]
- Kd (LNA at G6 C7 G33 C34, 3'-dT35, BIACORE 3000, 1:1 Langmuir): < 0.001 nM

Source: patent publication US8852954
